Results from patent US20090280138A1 (OXFORD BIOMEDICA UK, published 2009).

The binders below were run against T1, MHC class I molecule A*0201 (biotin (bound to streptavidin-coated plate)) (assay: iTopia iScore).
T1 construct: also called A2; HLA-A2
Protocol: (§1) The 9 mers were tested for Peptide Binding, Off Rate and Affinity using iTopia Epitope Discovery System in accordance with the manufacturer's instructions. Briefly, 96 well microtitre plates coated with MHC molecules representing different MHC alleles are used to identify candidate peptides. […] Determinations are performed in duplicate using an ELISA plate reader and included allele specific positive controls.
(§2) Finally, multiparametric analysis is performed on the results from these assays and an iScore is generated. The iScore represents a measure of the overall quality of peptide-MHC binding, enabling candidate peptides to be ranked in order of binding quality and allowing rational prioritisation of peptides for functional cellular follow-up studies.

PPEDERQNR [5T4 9-mer peptide 93 PPEDERQNR] and AGRALQGLR [5T4 9-mer peptide 103 AGRALQGLR] are the same in iScore: 0 for the first, 0 for the second.

First: GLRRLELAS [5T4 9-mer peptide 106 GLRRLELAS]
Second: VLAQLPSLR [5T4 9-mer peptide 115 VLAQLPSLR]
The iScore of the first is lower: 0.045 for the first, 0.113 for the second.

Compared with LLAGRALQG [5T4 9-mer peptide 102 LLAGRALQG], RHLDLSNNS [5T4 9-mer peptide 119 RHLDLSNNS] is lower in iScore: 0.176 for the first, 0.029 for the second.

Compared with SNHFLYLPR [5T4 9-mer peptide 110 SNHFLYLPR], ERQNRSFEG [5T4 9-mer peptide 95 ERQNRSFEG] is lower in iScore: 0.051 for the first, 0 for the second.

Compared with RSFEGMVVA [5T4 9-mer peptide 97 RSFEGMVVA], LYLPRDVLA [5T4 9-mer peptide 112 LYLPRDVLA] is higher in iScore: 0.189 for the first, 0.218 for the second.

First: AALLAGRAL [5T4 9-mer peptide 101 AALLAGRAL]
Second: RALQGLRRL [5T4 9-mer peptide 104 RALQGLRRL]
The iScore of the first is lower: 0.156 for the first, 0.168 for the second.

First: LELASNHFL [5T4 9-mer peptide 108 LELASNHFL]
Second: VVAALLAGR [5T4 9-mer peptide 100 VVAALLAGR]
The iScore of the first is higher: 0.151 for the first, 0 for the second.

Compared with HFLYLPRDV [5T4 9-mer peptide 111 HFLYLPRDV], EDERQNRSF [5T4 9-mer peptide 94 EDERQNRSF] is lower in iScore: 0.227 for the first, 0 for the second.

Compared with LQGLRRLEL [5T4 9-mer peptide 105 LQGLRRLEL], RRLELASNH [5T4 9-mer peptide 107 RRLELASNH] is lower in iScore: 0.114 for the first, 0 for the second.

Compared with FEGMVVAAL [5T4 9-mer peptide 98 FEGMVVAAL], AQLPSLRHL [5T4 9-mer peptide 116 AQLPSLRHL] is higher in iScore: 0.051 for the first, 0.162 for the second.

Compared with QNRSFEGMV [5T4 9-mer peptide 96 QNRSFEGMV], GMVVAALLA [5T4 9-mer peptide 99 GMVVAALLA] is higher in iScore: 0.052 for the first, 0.384 for the second.

These binders were tested against T2, MHC class I molecule B*0702 (biotin (bound to streptavidin-coated plate)) (assay: iTopia iScore).
T2 construct: also called B7; HLA-B7
Protocol: as §1, §2

PPEDERQNR [5T4 9-mer peptide 93 PPEDERQNR] and AGRALQGLR [5T4 9-mer peptide 103 AGRALQGLR] are the same in iScore: 0 for the first, 0 for the second.

GLRRLELAS [5T4 9-mer peptide 106 GLRRLELAS] and VLAQLPSLR [5T4 9-mer peptide 115 VLAQLPSLR] are the same in iScore: 0 for the first, 0 for the second.

LLAGRALQG [5T4 9-mer peptide 102 LLAGRALQG] and RHLDLSNNS [5T4 9-mer peptide 119 RHLDLSNNS] are the same in iScore: 0 for the first, 0 for the second.

SNHFLYLPR [5T4 9-mer peptide 110 SNHFLYLPR] and ERQNRSFEG [5T4 9-mer peptide 95 ERQNRSFEG] are the same in iScore: 0 for the first, 0 for the second.

RSFEGMVVA [5T4 9-mer peptide 97 RSFEGMVVA] and LYLPRDVLA [5T4 9-mer peptide 112 LYLPRDVLA] are the same in iScore: 0 for the first, 0 for the second.

Compared with AALLAGRAL [5T4 9-mer peptide 101 AALLAGRAL], RALQGLRRL [5T4 9-mer peptide 104 RALQGLRRL] is lower in iScore: 0.238 for the first, 0.078 for the second.

LELASNHFL [5T4 9-mer peptide 108 LELASNHFL] and VVAALLAGR [5T4 9-mer peptide 100 VVAALLAGR] are the same in iScore: 0 for the first, 0 for the second.

HFLYLPRDV [5T4 9-mer peptide 111 HFLYLPRDV] and EDERQNRSF [5T4 9-mer peptide 94 EDERQNRSF] are the same in iScore: 0 for the first, 0 for the second.

Going from LQGLRRLEL [5T4 9-mer peptide 105 LQGLRRLEL] to RRLELASNH [5T4 9-mer peptide 107 RRLELASNH], the iScore falls from 0.119 to 0.

FEGMVVAAL [5T4 9-mer peptide 98 FEGMVVAAL] and AQLPSLRHL [5T4 9-mer peptide 116 AQLPSLRHL] are the same in iScore: 0 for the first, 0 for the second.

QNRSFEGMV [5T4 9-mer peptide 96 QNRSFEGMV] and GMVVAALLA [5T4 9-mer peptide 99 GMVVAALLA] are the same in iScore: 0 for the first, 0 for the second.

These binders were tested against T3, MHC class I molecule A*0101 (biotin (bound to streptavidin-coated plate)) (assay: iTopia iScore).
T3 construct: also called A1; HLA-A1
Protocol: as §1, §2

PPEDERQNR [5T4 9-mer peptide 93 PPEDERQNR] and AGRALQGLR [5T4 9-mer peptide 103 AGRALQGLR] are the same in iScore: 0 for the first, 0 for the second.

GLRRLELAS [5T4 9-mer peptide 106 GLRRLELAS] and VLAQLPSLR [5T4 9-mer peptide 115 VLAQLPSLR] are the same in iScore: 0 for the first, 0 for the second.

LLAGRALQG [5T4 9-mer peptide 102 LLAGRALQG] and RHLDLSNNS [5T4 9-mer peptide 119 RHLDLSNNS] are the same in iScore: 0 for the first, 0 for the second.

SNHFLYLPR [5T4 9-mer peptide 110 SNHFLYLPR] and ERQNRSFEG [5T4 9-mer peptide 95 ERQNRSFEG] are the same in iScore: 0 for the first, 0 for the second.

RSFEGMVVA [5T4 9-mer peptide 97 RSFEGMVVA] and LYLPRDVLA [5T4 9-mer peptide 112 LYLPRDVLA] are the same in iScore: 0 for the first, 0 for the second.

AALLAGRAL [5T4 9-mer peptide 101 AALLAGRAL] and RALQGLRRL [5T4 9-mer peptide 104 RALQGLRRL] are the same in iScore: 0 for the first, 0 for the second.

LELASNHFL [5T4 9-mer peptide 108 LELASNHFL] and VVAALLAGR [5T4 9-mer peptide 100 VVAALLAGR] are the same in iScore: 0 for the first, 0 for the second.

HFLYLPRDV [5T4 9-mer peptide 111 HFLYLPRDV] and EDERQNRSF [5T4 9-mer peptide 94 EDERQNRSF] are the same in iScore: 0 for the first, 0 for the second.

LQGLRRLEL [5T4 9-mer peptide 105 LQGLRRLEL] and RRLELASNH [5T4 9-mer peptide 107 RRLELASNH] are the same in iScore: 0 for the first, 0 for the second.

FEGMVVAAL [5T4 9-mer peptide 98 FEGMVVAAL] and AQLPSLRHL [5T4 9-mer peptide 116 AQLPSLRHL] are the same in iScore: 0 for the first, 0 for the second.

QNRSFEGMV [5T4 9-mer peptide 96 QNRSFEGMV] and GMVVAALLA [5T4 9-mer peptide 99 GMVVAALLA] are the same in iScore: 0 for the first, 0 for the second.

These binders were tested against T4, MHC class I molecule A*0301 (biotin (bound to streptavidin-coated plate)) (assay: iTopia iScore).
T4 construct: also called A3; HLA-A3
Protocol: as §1, §2

PPEDERQNR [5T4 9-mer peptide 93 PPEDERQNR] and AGRALQGLR [5T4 9-mer peptide 103 AGRALQGLR] are the same in iScore: 0 for the first, 0 for the second.

Compared with GLRRLELAS [5T4 9-mer peptide 106 GLRRLELAS], VLAQLPSLR [5T4 9-mer peptide 115 VLAQLPSLR] is higher in iScore: 0 for the first, 0.023 for the second.

LLAGRALQG [5T4 9-mer peptide 102 LLAGRALQG] and RHLDLSNNS [5T4 9-mer peptide 119 RHLDLSNNS] are the same in iScore: 0 for the first, 0 for the second.

First: SNHFLYLPR [5T4 9-mer peptide 110 SNHFLYLPR]
Second: ERQNRSFEG [5T4 9-mer peptide 95 ERQNRSFEG]
The iScore of the first is higher: 0.084 for the first, 0 for the second.

RSFEGMVVA [5T4 9-mer peptide 97 RSFEGMVVA] and LYLPRDVLA [5T4 9-mer peptide 112 LYLPRDVLA] are the same in iScore: 0 for the first, 0 for the second.

Compared with AALLAGRAL [5T4 9-mer peptide 101 AALLAGRAL], RALQGLRRL [5T4 9-mer peptide 104 RALQGLRRL] is higher in iScore: 0 for the first, 0.027 for the second.

First: LELASNHFL [5T4 9-mer peptide 108 LELASNHFL]
Second: VVAALLAGR [5T4 9-mer peptide 100 VVAALLAGR]
The iScore of the first is lower: 0 for the first, 0.125 for the second.

HFLYLPRDV [5T4 9-mer peptide 111 HFLYLPRDV] and EDERQNRSF [5T4 9-mer peptide 94 EDERQNRSF] are the same in iScore: 0 for the first, 0 for the second.

LQGLRRLEL [5T4 9-mer peptide 105 LQGLRRLEL] and RRLELASNH [5T4 9-mer peptide 107 RRLELASNH] are the same in iScore: 0 for the first, 0 for the second.

FEGMVVAAL [5T4 9-mer peptide 98 FEGMVVAAL] and AQLPSLRHL [5T4 9-mer peptide 116 AQLPSLRHL] are the same in iScore: 0 for the first, 0 for the second.

QNRSFEGMV [5T4 9-mer peptide 96 QNRSFEGMV] and GMVVAALLA [5T4 9-mer peptide 99 GMVVAALLA] are the same in iScore: 0 for the first, 0 for the second.
